The values that follow come from US12528864 (GlaxoSmithKline, dated 2026).

Read-outs that look alike come from different tables or passages of the source.

One experiment concerns the target T1, recombinant human CD226 (human, UniProt Q15762 19-247, limits assumed).
T1 sequence (looked up): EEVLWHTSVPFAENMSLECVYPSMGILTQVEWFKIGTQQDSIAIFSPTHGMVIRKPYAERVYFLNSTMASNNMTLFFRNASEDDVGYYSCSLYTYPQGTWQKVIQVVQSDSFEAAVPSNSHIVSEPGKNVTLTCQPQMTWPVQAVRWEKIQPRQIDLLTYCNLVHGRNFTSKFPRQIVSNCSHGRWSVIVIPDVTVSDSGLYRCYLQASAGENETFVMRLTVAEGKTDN
As to the kind of experiment: surface plasmon resonance (SPR).

In experiment [1] the target is T2, recombinant human nectin-1 (human, UniProt Q15223 31-334, limits assumed).
T2 sequence (looked up): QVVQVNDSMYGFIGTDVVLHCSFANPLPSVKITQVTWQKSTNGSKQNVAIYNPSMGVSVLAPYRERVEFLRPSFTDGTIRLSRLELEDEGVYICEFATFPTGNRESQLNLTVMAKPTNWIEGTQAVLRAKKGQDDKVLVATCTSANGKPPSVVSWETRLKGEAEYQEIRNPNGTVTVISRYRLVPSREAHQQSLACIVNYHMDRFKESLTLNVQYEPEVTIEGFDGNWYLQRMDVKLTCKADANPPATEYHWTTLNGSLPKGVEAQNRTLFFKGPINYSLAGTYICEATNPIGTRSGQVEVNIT
As to the kind of experiment: surface plasmon resonance (SPR).

The next experiment deals with T3, recombinant human CD155 (human, UniProt P15151 21-343).
T3 sequence: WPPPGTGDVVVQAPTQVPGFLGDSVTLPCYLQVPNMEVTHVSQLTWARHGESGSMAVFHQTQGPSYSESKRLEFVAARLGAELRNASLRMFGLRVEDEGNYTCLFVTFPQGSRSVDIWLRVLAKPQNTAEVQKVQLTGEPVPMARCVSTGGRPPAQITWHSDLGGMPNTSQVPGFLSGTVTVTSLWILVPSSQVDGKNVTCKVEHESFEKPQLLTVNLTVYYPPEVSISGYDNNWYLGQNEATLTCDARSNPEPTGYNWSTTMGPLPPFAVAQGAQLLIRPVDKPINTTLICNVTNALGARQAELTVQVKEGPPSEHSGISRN
Kind of experiment: surface plasmon resonance (SPR).

The target of a further experiment is T4, recombinant human TIGIT (human, UniProt Q495A1 22-141).
T4 sequence (looked up): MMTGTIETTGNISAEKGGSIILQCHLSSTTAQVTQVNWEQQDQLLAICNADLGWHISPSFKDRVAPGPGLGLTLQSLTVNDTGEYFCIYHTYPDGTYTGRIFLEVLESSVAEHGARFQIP
Kind of experiment: surface plasmon resonance (SPR).

Experiment [2] has as its target T5, cynomolgus monkey CD96v2 expressed on cells (CHO cells; transiently transfected HEK cells) (cynomolgus monkey, UniProt A0A2K5TWV6 22-569).
T5 construct: the cell is named under assay; also called CHO-cyCD96; Cyno CD96v2
T5 sequence: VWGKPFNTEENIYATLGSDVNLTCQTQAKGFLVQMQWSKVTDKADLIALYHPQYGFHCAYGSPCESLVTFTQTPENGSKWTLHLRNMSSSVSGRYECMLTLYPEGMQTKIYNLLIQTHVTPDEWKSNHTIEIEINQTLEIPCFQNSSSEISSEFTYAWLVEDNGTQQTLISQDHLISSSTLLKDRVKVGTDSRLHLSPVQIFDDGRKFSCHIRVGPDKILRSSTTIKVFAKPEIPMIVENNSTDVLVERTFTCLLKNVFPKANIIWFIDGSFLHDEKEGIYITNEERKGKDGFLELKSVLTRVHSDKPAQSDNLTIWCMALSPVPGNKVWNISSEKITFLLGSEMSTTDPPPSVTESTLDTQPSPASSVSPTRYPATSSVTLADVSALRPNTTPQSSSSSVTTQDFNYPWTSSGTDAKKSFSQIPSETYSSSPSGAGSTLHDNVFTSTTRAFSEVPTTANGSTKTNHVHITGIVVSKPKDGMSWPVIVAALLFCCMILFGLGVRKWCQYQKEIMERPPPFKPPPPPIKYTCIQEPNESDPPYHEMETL
As to the kind of experiment: flow cytometry on CHO cells expressing cynomolgus CD96v2.

In experiment [3] the target is T6, blood derived cynomolgus monkey CD96v2 on transiently transfected HEK cells (cynomolgus monkey).
T6 construct: also called Blood derived Cyno CD96v2
Kind of experiment: flow cytometry on transiently transfected HEK cells (Cyno blood derived CD96v2).

Experiment [4] addresses T7, recombinant cynomolgus monkey CD96v2 (cynomolgus monkey, UniProt A0A2K5TWV6 22-487, biotinylated (site not stated)).
T7 construct: Soluble recombinant protein used in MSD-SET; also called cynomolgus monkey biotinylated CD96 protein
T7 sequence: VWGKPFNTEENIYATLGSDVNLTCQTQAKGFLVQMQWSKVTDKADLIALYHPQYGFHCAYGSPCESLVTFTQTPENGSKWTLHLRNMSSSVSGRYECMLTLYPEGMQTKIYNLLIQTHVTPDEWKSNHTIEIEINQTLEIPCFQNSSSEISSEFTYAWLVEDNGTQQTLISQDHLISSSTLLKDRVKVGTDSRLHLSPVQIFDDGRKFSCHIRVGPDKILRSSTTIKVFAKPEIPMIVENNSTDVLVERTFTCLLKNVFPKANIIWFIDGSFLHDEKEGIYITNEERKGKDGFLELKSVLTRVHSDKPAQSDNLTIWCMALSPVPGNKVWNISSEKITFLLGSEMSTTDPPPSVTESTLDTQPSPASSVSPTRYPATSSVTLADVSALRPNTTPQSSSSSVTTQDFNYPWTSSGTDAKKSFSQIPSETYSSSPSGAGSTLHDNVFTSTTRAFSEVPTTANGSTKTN
As to the kind of experiment: MSD-SET solution equilibrium titration, antibody titrated against constant biotinylated CD96, free antigen detected.

Experiment [5] has as its target T6, blood derived cynomolgus monkey CD96v2 …. Kind of experiment: flow cytometry on transiently transfected HEK cells (Cyno blood derived CD96v2). The source holds these as a separate data set.

B1: 42Y073-86F08-66 (antibody)
heavy: not shown
light: DIQLTQSPSSLSASVGDRVTITCRASQSISSYLNWYQQKPGKAPKLLIYAASSLQSGVPSRFSGSGSGTDFTLTISSLQPEDFATYYCQQVLHTITFGGGTKVEIKRTVAAPSVFIFPPSDEQLKSGTASVVCLLNNFYPREAKVQWKVDNALQSGNSQESVTEQDSKDSTYSLSSTLTLSKADYEKHKVYACEVTHQGLSSPVTKSFNRGEC
notes: also called GSK 6097608; GSK6097608
B1: the binding result (with recombinant human CD226; in experiment [1]; with recombinant human CD155; in the experiment with recombinant human TIGIT) was “no binding” each time. Further, the response in experiment [2] was half-maximal at 0.02 nM (EC50). Moreover, the “EC50 (read off the curve)” value in experiment [3] is roughly 5 nM; in experiment [5] it was roughly 9 nM. For the same molecule, in experiment [4], the “IC50 (read off the curve)” value was roughly 0.4 nM.
